This assay deals with HLA-E*01:03 (Homo sapiens, UniProt P13747). In words: Stability of native peptide-HLA-E complexes by loss of ILT2 binding over time (SPR).
HLA-E*01:03, sequence (P13747 with tags, fused parts or gaps): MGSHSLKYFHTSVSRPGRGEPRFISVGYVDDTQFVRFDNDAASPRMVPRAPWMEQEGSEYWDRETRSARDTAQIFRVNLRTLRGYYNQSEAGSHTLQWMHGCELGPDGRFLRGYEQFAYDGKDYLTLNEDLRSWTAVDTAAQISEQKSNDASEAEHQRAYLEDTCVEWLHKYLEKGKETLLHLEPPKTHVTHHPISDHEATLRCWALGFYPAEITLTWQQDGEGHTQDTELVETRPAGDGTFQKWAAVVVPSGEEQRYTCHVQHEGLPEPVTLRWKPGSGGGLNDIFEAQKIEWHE
HLA-E*01:03, sequence (P61769 with tags, fused parts or gaps partner): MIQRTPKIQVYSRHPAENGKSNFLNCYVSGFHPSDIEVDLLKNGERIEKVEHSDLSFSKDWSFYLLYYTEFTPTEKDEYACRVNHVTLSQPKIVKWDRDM

VMAPRTLVL: under “native unmodified peptide in complex with HLA-E*01:03, half-life by ILT2 binding”, the “T 1/2 (h) (HLA-E*01:03)” value is recorded as 3.00 h.

Turning to “RMYSPVSIL [HIV (Gag 275) peptide known to be presented by HLA-E]”, where the note is “[…], half-life by ILT2 binding”, the “T 1/2 (h) (HLA-E*01:03)” value was 0.27 h. On the same count and under the same terms, with “VMATRRNVL [MTB peptide known to be presented by HLA-E]” the figure was 0.57 h; with VMAPRTLIL, 3.20 h. Still for that read-out and setting: the result for “ILPSDAPVL [MTB peptide known to be presented by HLA-E]” reads 0.70 h.

Source of the values: patent publication US20230054274A1, “PEPTIDE-MHC COMPLEXES” (priority 2019, published 2023).
